Consider 1 protein from PMC4993509 (PLoS ONE, 2016).

The data set concerns the molecule itself. Put plainly: SEC-MALS; Superdex 200 HR 10/30 coupled to three-angle light scattering (mini-DAWN EOS) and refractive index detector, flow 0.2 ml/min. On the technique in general: In gel filtration, larger molecules generally elute earlier.

B1: C-terminal histidine-tagged SYCP1 CC (coiled-coil domain of human synaptonemal complex protein 1, residues 662-801) (domain or fragment, UniProt Q15431 662-801, looked up)
chain: DTYQKEIEDKKISEENLLEEVEKAKVIADEAVKLQKEIDKRCQHKIAEMVALMEKHKHQYDKIIEERDSELGLYKSKEQEQSSLRASLEIELSNLKAELLSVKKQLEIEREEKEKLKREAKENTATLKEKKDKKTQTFLL
notes: synaptonemal complex protein 1 (SYCP1), human, coiled-coil domain region, residues 662 (D)-801 (L); A selenomethionine-substituted form was also made and crystallised; the final model holds residues 673-767 (chain A) and 673-769 (chain B); also called SYCP CC; wildtype; source: E. coli BL21 (pET24a), purified (Ni-NTA, Superdex 200 gel filtration); not shown: His tag, C-terminal, kept
With B1, the stoichiometry N (commonly a count of units in the complex or per binding partner) turned out to be 2.
